{"source": "patent US6468965B1", "about": "“Pharmaceutical composition for oral administration of a mixture of chelating agents” (priority 2002, dated 2002)", "origin": "cited, not measured here", "molecules": {"B1": {"name": "lactoferrin (protein, UniProt P24627 20-708, looked up)", "Lactotransferrin": "APRKNVRWCTISQPEWFKCRRWQWRMKKLGAPSITCVRRAFALECIRAIAEKKADAVTLDGGMVFEAGRDPYKLRPVAAEIYGTKESPQTHYYAVAVVKKGSNFQLDQLQGRKSCHTGLGRSAGWIIPMGILRPYLSWTESLEPLQGAVAKFFSASCVPCIDRQAYPNLCQLCKGEGENQCACSSREPYFGYSGAFKCLQDGAGDVAFVKETTVFENLPEKADRDQYELLCLNNSRAPVDAFKECHLAQVPSHAVVARSVDGKEDLIWKLLSKAQEKFGKNKSRSFQLFGSPPGQRDLLFKDSALGFLRIPSKVDSALYLGSRYLTTLKNLRETAEEVKARYTRVVWCAVGPEEQKKCQQWSQQSGQNVTCATASTTDDCIVLVLKGEADALNLDGGYIYTAGKCGLVPVLAENRKSSKHSSLDCVLRPTEGYLAVAVVKKANEGLTWNSLKDKKSCHTAVDRTAGWNIPMGLIVNQTGSCAFDEFFSQSCAPGADPKSRLCALCAGDDQGLDKCVPNSKEKYYGYTGAFRCLAEDVGDVAFVKNDTVWENTNGESTADWAKNLNREDFRLLCLDGTRKPVTEAQSCHLAVAPNHAVVSRSDRAAHVKQVLLHQQALFGKNGKNCPDKFCLFKSETKNLLFNDNTECLAKLGGRPTYEEYLGTEYVTAIANLKKCSTSPLLEACAFLTR", "notes": "80 kDa mammalian iron-chelating glycoprotein obtainable from the whey protein of cow's milk"}}, "key": {"Porphyromonas gingivalis": {"test_system": "Porphyromonas gingivalis", "details": "literature report, J. Biol. Chem. 2000"}, "[1]": {"test_system": "VEGF165-Mediated Angiogenesis", "details": "orally administered; literature report, Int. J. Cancer 2001"}, "colon 26 carcinoma": {"test_system": "colon 26 carcinoma", "details": "orally administered; literature report, Nutrition and Cancer 2000"}}, "data": [{"molecule": "B1", "values": [{"measurement": "action on growth of the bacteria responsible for gingivitis", "setting": "Porphyromonas gingivalis", "value": "inhibiting action"}, {"measurement": "effect on angiogenesis", "setting": "[1]", "value": "inhibiting angiogenesis"}, {"measurement": "effect on the lung colonization of colon 26 carcinoma", "setting": "colon 26 carcinoma", "value": "significant inhibiting effect"}]}]}
